Experimental data from PMC3283256 (The Journal of Biological Chemistry, 2010).
Blank lines part the entries; values can stand above or below the binder they belong to.

Molecular target: His-tagged N-WASP (rat, UniProt O08816 1-501)
Assay: pull-down

Sequence of His-tagged N-WASP (O08816 whole entry): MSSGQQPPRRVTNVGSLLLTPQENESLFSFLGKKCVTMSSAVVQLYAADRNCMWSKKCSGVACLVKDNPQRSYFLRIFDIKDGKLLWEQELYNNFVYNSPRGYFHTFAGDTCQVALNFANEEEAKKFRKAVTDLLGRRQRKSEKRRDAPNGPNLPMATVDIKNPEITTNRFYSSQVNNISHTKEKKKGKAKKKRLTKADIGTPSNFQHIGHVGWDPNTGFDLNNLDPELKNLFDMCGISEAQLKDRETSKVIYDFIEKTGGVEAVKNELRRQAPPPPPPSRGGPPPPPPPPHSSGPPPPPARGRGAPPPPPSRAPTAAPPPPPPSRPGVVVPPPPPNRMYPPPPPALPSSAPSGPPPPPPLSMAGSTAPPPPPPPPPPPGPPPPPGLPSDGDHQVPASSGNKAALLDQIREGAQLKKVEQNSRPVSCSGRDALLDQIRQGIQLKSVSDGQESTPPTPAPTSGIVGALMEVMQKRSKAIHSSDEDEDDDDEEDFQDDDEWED

- binding result: binds
B1: GST-Gas7WW2 (domain or fragment, mouse, UniProt Q60780 1-151, looked up)
chain: MATALQKPGMVPPPPGEESQTVILPPGWHSYLSPQGRRYYVNTTTNETTWERPSSSPGISASPAPHRSSLPTTVNGYHASGTPAHPPETAHMSLRKSTGDSQNLGSSSPGRKQSKENTITINCVTFPHPDTMPEQQLLKPTEWSYCDYFWA

- binding result: binds
B2: GST-Gas7 (natural protein, mouse, UniProt Q60780 1-421, looked up)
chain: MATALQKPGMVPPPPGEESQTVILPPGWHSYLSPQGRRYYVNTTTNETTWERPSSSPGISASPAPHRSSLPTTVNGYHASGTPAHPPETAHMSLRKSTGDSQNLGSSSPGRKQSKENTITINCVTFPHPDTMPEQQLLKPTEWSYCDYFWADKKDPQGNGTVAGFELLLQKQLKGKQMQKEMSEFIRERIKIEEEYAKNLAKLSQNSLAAQEEGSLGEAWAQVKKSLADEAEVHLKFSAKLHSEVEKPLMNFRENFKKDMKKCDHHIADLRKQLASRYASVEKARKALTERQKDLEMKTQQLEIKLSNKTEEDIKKARRKSTQAGDDLMRCVDLYNQAQSKWFEEMVTTTLELERLEVERVEMIRQHLCQYTQLRHETDMFNQSTVEPVDQLLRKVDPAKDRELWVREHKTGNIRPVDMEI
